Data reported in patent US20220211857A1, “POLYPEPTIDE DERIVATIVE AND PREPARATION METHOD THEREOF” (NINGBO KUNPENG BIOTECH CO., LTD., priority 2019, published 2022).
Where a SMILES comes first, the peptide text is derived from it. The star is where a group is joined. X3 = O=C(O)CCCCCCCCCCCCCCC(=O)NC(CCC(=O)NCCOCCOCCOCCOCCn1cc(CCOC(=O)*)nn1)C(=O)O; X5 = O=C(O)CCCCCCCCCCCCCCC(=O)NC(CCC(=O)NCCOCCOCCOCCn1cc(CCOC(=O)*)nn1)C(=O)O; X2 = O=C(O)CCCCCCCCCCCCCCC(=O)NC(CCC(=O)NCCn1cc(CCOC(=O)*)nn1)C(=O)O

Columns and labels:
[1] = Pharmacokinetics studies of GLP-1 derivatives in rats (single subcutaneous injection, LC-MS/MS, NCA); conditions: rat; for half-lives (in words): experiment of Example 8 repeated in the same way
Experimental: The experiment comprised a reference substance group and a test substance group. GLP-1 and L6-GFA16-GLP-1 were injected subcutaneously with a single administration of 0.5 mg/kg, respectively. Animals in each group were collected blood at 15 min, 30 min, 1 h, 2 h, 3 h, 5 h, 7 h, 12 h, and 24 h after administration. LC-MS/MS analysis method was used to detect contents of different GLP-1 analogues.

[2] = Pharmacokinetics studies of PTH-1 derivatives in rats (single subcutaneous injection, LC-MS/MS, NCA); assay type: in vivo; conditions: rat, experiment of Example 10 repeated in the same way
Experimental: PTH-1 and L6-GFA16-PTH-1 were injected subcutaneously with a single administration of 8.6 μg/kg, respectively. Animals in each group were collected blood at 0 min, 5 min, 15 min, 30 min, 1 h, 2 h, and 4 h after administration. […] Exposure time of drugs in vivo was prolonged and exposure doses were increased.

CC[C@H](C)[C@H](NC(=O)[C@H](Cc1ccccc1)NC(=O)[C@H](CCC(=O)O)NC(=O)[C@H](CCCCNC(=O)OCCc1cn(CCOCCOCCNC(=O)CCC(NC(=O)CCCCCCCCCCCCCCC(=O)O)C(=O)O)nn1)NC(=O)[C@H](C)NC(=O)[C@H](C)NC(=O)[C@H](CCC(N)=O)NC(=O)CNC(=O)[C@H](CCC(=O)O)NC(=O)[C@H](CC(C)C)NC(=O)[C@H](Cc1ccc(O)cc1)NC(=O)[C@H](CO)NC(=O)[C@H](CO)NC(=O)[C@@H](NC(=O)[C@H](CC(=O)O)NC(=O)[C@H](CO)NC(=O)[C@@H](NC(=O)[C@H](Cc1ccccc1)NC(=O)[C@@H](NC(=O)CNC(=O)[C@H](CCC(=O)O)NC(=O)[C@H](C)NC(=O)[C@@H](N)Cc1c[nH]cn1)[C@@H](C)O)[C@@H](C)O)C(C)C)C(=O)N[C@@H](C)C(=O)N[C@@H](Cc1c[nH]c2ccccc12)C(=O)N[C@@H](CC(C)C)C(=O)N[C@H](C(=O)N[C@@H](CCCCN)C(=O)NCC(=O)N[C@@H](CCCNC(=N)N)C(=O)NCC(=O)O)C(C)C (stereo partly drawn) [L2-GFA16-GLP-1]
half-lives (in words) [1]: significantly prolonged

CC[C@H](C)[C@H](NC(=O)[C@H](CCC(=O)O)NC(=O)[C@H](CO)NC(=O)[C@@H](NC(=O)[C@@H](N)CO)C(C)C)C(=O)N[C@@H](CCC(N)=O)C(=O)N[C@@H](CC(C)C)C(=O)N[C@@H](CCSC)C(=O)N[C@@H](Cc1c[nH]cn1)C(=O)N[C@@H](CC(N)=O)C(=O)N[C@@H](CC(C)C)C(=O)NCC(=O)N[C@@H](CCCNC(=N)N)C(=O)N[C@@H](Cc1c[nH]cn1)C(=O)N[C@@H](CC(C)C)C(=O)N[C@@H](CC(N)=O)C(=O)N[C@@H](CO)C(=O)N[C@@H](CCSC)C(=O)N[C@@H](CCC(=O)O)C(=O)N[C@@H](CCCNC(=N)N)C(=O)N[C@H](C(=O)N[C@@H](CCC(=O)O)C(=O)N[C@@H](Cc1c[nH]c2ccccc12)C(=O)N[C@@H](CC(C)C)C(=O)N[C@@H](CCCNC(=N)N)C(=O)N[C@@H](CCCCNC(=O)OCCc1cn(CCOCCOCCOCCNC(=O)CCC(NC(=O)CCCCCCCCCCCCCCC(=O)O)C(=O)O)nn1)C(=O)N[C@@H](CCCNC(=N)N)C(=O)N[C@@H](CC(C)C)C(=O)N[C@@H](CCC(N)=O)C(=O)N[C@@H](CC(=O)O)C(=O)N[C@H](C(=O)N[C@@H](Cc1c[nH]cn1)C(=O)N[C@@H](CC(N)=O)C(=O)N[C@@H](Cc1ccccc1)C(=O)O)C(C)C)C(C)C (stereo partly drawn) [L3-GFA16-PTH] (H-SVSEIQLMHNLGRHLNSMERVEWLRK(X5)RLQDVHNF-OH)
half-lives (in words) [2]: significantly prolonged

CC[C@H](C)[C@H](NC(=O)[C@H](Cc1ccccc1)NC(=O)[C@H](CCC(=O)O)NC(=O)[C@H](CCCCNC(=O)OCCc1cn(CCNC(=O)COCCOCCNC(=O)COCCOCCNC(=O)CCC(NC(=O)CCCCCCCCCCCCCCC(=O)O)C(=O)O)nn1)NC(=O)[C@H](C)NC(=O)[C@H](C)NC(=O)[C@H](CCC(N)=O)NC(=O)CNC(=O)[C@H](CCC(=O)O)NC(=O)[C@H](CC(C)C)NC(=O)[C@H](Cc1ccc(O)cc1)NC(=O)[C@H](CO)NC(=O)[C@H](CO)NC(=O)[C@@H](NC(=O)[C@H](CC(=O)O)NC(=O)[C@H](CO)NC(=O)[C@@H](NC(=O)[C@H](Cc1ccccc1)NC(=O)[C@@H](NC(=O)CNC(=O)[C@H](CCC(=O)O)NC(=O)[C@H](C)NC(=O)[C@@H](N)Cc1c[nH]cn1)[C@@H](C)O)[C@@H](C)O)C(C)C)C(=O)N[C@@H](C)C(=O)N[C@@H](Cc1c[nH]c2ccccc12)C(=O)N[C@@H](CC(C)C)C(=O)N[C@H](C(=O)N[C@@H](CCCCN)C(=O)NCC(=O)N[C@@H](CCCNC(=N)N)C(=O)NCC(=O)O)C(C)C (stereo partly drawn) [L6-GFA16-GLP-1]
Exposure time in vivo ([1]; s.c. 0.5 mg/kg, versus GLP-1): prolonged
exposure doses ([1]; s.c. 0.5 mg/kg, versus GLP-1): increased significantly

CC[C@H](C)[C@H](NC(=O)[C@H](CCC(=O)O)NC(=O)[C@H](CO)NC(=O)[C@@H](NC(=O)[C@@H](N)CO)C(C)C)C(=O)N[C@@H](CCC(N)=O)C(=O)N[C@@H](CC(C)C)C(=O)N[C@@H](CCSC)C(=O)N[C@@H](Cc1c[nH]cn1)C(=O)N[C@@H](CC(N)=O)C(=O)N[C@@H](CC(C)C)C(=O)NCC(=O)N[C@@H](CCCNC(=N)N)C(=O)N[C@@H](Cc1c[nH]cn1)C(=O)N[C@@H](CC(C)C)C(=O)N[C@@H](CC(N)=O)C(=O)N[C@@H](CO)C(=O)N[C@@H](CCSC)C(=O)N[C@@H](CCC(=O)O)C(=O)N[C@@H](CCCNC(=N)N)C(=O)N[C@H](C(=O)N[C@@H](CCC(=O)O)C(=O)N[C@@H](Cc1c[nH]c2ccccc12)C(=O)N[C@@H](CC(C)C)C(=O)N[C@@H](CCCNC(=N)N)C(=O)N[C@@H](CCCCNC(=O)OCCc1cn(CCOCCOCCOCCOCCNC(=O)CCC(NC(=O)CCCCCCCCCCCCCCC(=O)O)C(=O)O)nn1)C(=O)N[C@@H](CCCNC(=N)N)C(=O)N[C@@H](CC(C)C)C(=O)N[C@@H](CCC(N)=O)C(=O)N[C@@H](CC(=O)O)C(=O)N[C@H](C(=O)N[C@@H](Cc1c[nH]cn1)C(=O)N[C@@H](CC(N)=O)C(=O)N[C@@H](Cc1ccccc1)C(=O)O)C(C)C)C(C)C (stereo partly drawn) [L4-GFA16-PTH] (H-SVSEIQLMHNLGRHLNSMERVEWLRK(X3)RLQDVHNF-OH)
half-lives (in words) [2]: significantly prolonged

CC[C@H](C)[C@H](NC(=O)[C@H](CCC(=O)O)NC(=O)[C@H](CO)NC(=O)[C@@H](NC(=O)[C@@H](N)CO)C(C)C)C(=O)N[C@@H](CCC(N)=O)C(=O)N[C@@H](CC(C)C)C(=O)N[C@@H](CCSC)C(=O)N[C@@H](Cc1c[nH]cn1)C(=O)N[C@@H](CC(N)=O)C(=O)N[C@@H](CC(C)C)C(=O)NCC(=O)N[C@@H](CCCNC(=N)N)C(=O)N[C@@H](Cc1c[nH]cn1)C(=O)N[C@@H](CC(C)C)C(=O)N[C@@H](CC(N)=O)C(=O)N[C@@H](CO)C(=O)N[C@@H](CCSC)C(=O)N[C@@H](CCC(=O)O)C(=O)N[C@@H](CCCNC(=N)N)C(=O)N[C@H](C(=O)N[C@@H](CCC(=O)O)C(=O)N[C@@H](Cc1c[nH]c2ccccc12)C(=O)N[C@@H](CC(C)C)C(=O)N[C@@H](CCCNC(=N)N)C(=O)N[C@@H](CCCCNC(=O)OCCc1cn(CCNC(=O)CCC(NC(=O)CCCCCCCCCCCCCCC(=O)O)C(=O)O)nn1)C(=O)N[C@@H](CCCNC(=N)N)C(=O)N[C@@H](CC(C)C)C(=O)N[C@@H](CCC(N)=O)C(=O)N[C@@H](CC(=O)O)C(=O)N[C@H](C(=O)N[C@@H](Cc1c[nH]cn1)C(=O)N[C@@H](CC(N)=O)C(=O)N[C@@H](Cc1ccccc1)C(=O)O)C(C)C)C(C)C (stereo partly drawn) [L0-GFA16-PTH] (H-SVSEIQLMHNLGRHLNSMERVEWLRK(X2)RLQDVHNF-OH)
half-lives (in words) [2]: significantly prolonged

CC[C@H](C)[C@H](NC(=O)[C@H](Cc1ccccc1)NC(=O)[C@H](CCC(=O)O)NC(=O)[C@H](CCCCNC(=O)OCCc1cn(CCOCCOCCOCCNC(=O)CCC(NC(=O)CCCCCCCCCCCCCCC(=O)O)C(=O)O)nn1)NC(=O)[C@H](C)NC(=O)[C@H](C)NC(=O)[C@H](CCC(N)=O)NC(=O)CNC(=O)[C@H](CCC(=O)O)NC(=O)[C@H](CC(C)C)NC(=O)[C@H](Cc1ccc(O)cc1)NC(=O)[C@H](CO)NC(=O)[C@H](CO)NC(=O)[C@@H](NC(=O)[C@H](CC(=O)O)NC(=O)[C@H](CO)NC(=O)[C@@H](NC(=O)[C@H](Cc1ccccc1)NC(=O)[C@@H](NC(=O)CNC(=O)[C@H](CCC(=O)O)NC(=O)[C@H](C)NC(=O)[C@@H](N)Cc1c[nH]cn1)[C@@H](C)O)[C@@H](C)O)C(C)C)C(=O)N[C@@H](C)C(=O)N[C@@H](Cc1c[nH]c2ccccc12)C(=O)N[C@@H](CC(C)C)C(=O)N[C@H](C(=O)N[C@@H](CCCCN)C(=O)NCC(=O)N[C@@H](CCCNC(=N)N)C(=O)NCC(=O)O)C(C)C (stereo partly drawn) [L3-GFA16-GLP-1]
half-lives (in words) [1]: significantly prolonged

CC[C@H](C)[C@H](NC(=O)[C@H](Cc1ccccc1)NC(=O)[C@H](CCC(=O)O)NC(=O)[C@H](CCCCNC(=O)OCCc1cn(CCNC(=O)CCC(NC(=O)CCCCCCCCCCCCCCC(=O)O)C(=O)O)nn1)NC(=O)[C@H](C)NC(=O)[C@H](C)NC(=O)[C@H](CCC(N)=O)NC(=O)CNC(=O)[C@H](CCC(=O)O)NC(=O)[C@H](CC(C)C)NC(=O)[C@H](Cc1ccc(O)cc1)NC(=O)[C@H](CO)NC(=O)[C@H](CO)NC(=O)[C@@H](NC(=O)[C@H](CC(=O)O)NC(=O)[C@H](CO)NC(=O)[C@@H](NC(=O)[C@H](Cc1ccccc1)NC(=O)[C@@H](NC(=O)CNC(=O)[C@H](CCC(=O)O)NC(=O)[C@H](C)NC(=O)[C@@H](N)Cc1c[nH]cn1)[C@@H](C)O)[C@@H](C)O)C(C)C)C(=O)N[C@@H](C)C(=O)N[C@@H](Cc1c[nH]c2ccccc12)C(=O)N[C@@H](CC(C)C)C(=O)N[C@H](C(=O)N[C@@H](CCCCN)C(=O)NCC(=O)N[C@@H](CCCNC(=N)N)C(=O)NCC(=O)O)C(C)C (stereo partly drawn) [L0-GFA16-GLP-1]
half-lives (in words) [1]: significantly prolonged

CC[C@H](C)[C@H](NC(=O)[C@H](Cc1ccccc1)NC(=O)[C@H](CCC(=O)O)NC(=O)[C@H](CCCCNC(=O)OCCc1cn(CCOCCOCCOCCOCCNC(=O)CCC(NC(=O)CCCCCCCCCCCCCCC(=O)O)C(=O)O)nn1)NC(=O)[C@H](C)NC(=O)[C@H](C)NC(=O)[C@H](CCC(N)=O)NC(=O)CNC(=O)[C@H](CCC(=O)O)NC(=O)[C@H](CC(C)C)NC(=O)[C@H](Cc1ccc(O)cc1)NC(=O)[C@H](CO)NC(=O)[C@H](CO)NC(=O)[C@@H](NC(=O)[C@H](CC(=O)O)NC(=O)[C@H](CO)NC(=O)[C@@H](NC(=O)[C@H](Cc1ccccc1)NC(=O)[C@@H](NC(=O)CNC(=O)[C@H](CCC(=O)O)NC(=O)[C@H](C)NC(=O)[C@@H](N)Cc1c[nH]cn1)[C@@H](C)O)[C@@H](C)O)C(C)C)C(=O)N[C@@H](C)C(=O)N[C@@H](Cc1c[nH]c2ccccc12)C(=O)N[C@@H](CC(C)C)C(=O)N[C@H](C(=O)N[C@@H](CCCCN)C(=O)NCC(=O)N[C@@H](CCCNC(=N)N)C(=O)NCC(=O)O)C(C)C (stereo partly drawn) [L4-GFA16-GLP-1]
half-lives (in words) [1]: significantly prolonged
